Measurements reported in article PMC10119312, “Structural insights into RNase J that plays an essential role in Mycobacterium tuberculosis RNA metabolism” (Nature Communications, 2023).

Assays:
[1] = molecular target: T1, Mtb-RNase J D85A (catalytically inactive) (Mycobacterium tuberculosis H37Rv, UniProt P9WGZ9 1-558, D85A); assay: X-ray crystal structure; details: protein: recombinant; tags: N-terminal 6xHis-SUMO, removed by ULP1; chain copies: 2; single strand
T1 sequence: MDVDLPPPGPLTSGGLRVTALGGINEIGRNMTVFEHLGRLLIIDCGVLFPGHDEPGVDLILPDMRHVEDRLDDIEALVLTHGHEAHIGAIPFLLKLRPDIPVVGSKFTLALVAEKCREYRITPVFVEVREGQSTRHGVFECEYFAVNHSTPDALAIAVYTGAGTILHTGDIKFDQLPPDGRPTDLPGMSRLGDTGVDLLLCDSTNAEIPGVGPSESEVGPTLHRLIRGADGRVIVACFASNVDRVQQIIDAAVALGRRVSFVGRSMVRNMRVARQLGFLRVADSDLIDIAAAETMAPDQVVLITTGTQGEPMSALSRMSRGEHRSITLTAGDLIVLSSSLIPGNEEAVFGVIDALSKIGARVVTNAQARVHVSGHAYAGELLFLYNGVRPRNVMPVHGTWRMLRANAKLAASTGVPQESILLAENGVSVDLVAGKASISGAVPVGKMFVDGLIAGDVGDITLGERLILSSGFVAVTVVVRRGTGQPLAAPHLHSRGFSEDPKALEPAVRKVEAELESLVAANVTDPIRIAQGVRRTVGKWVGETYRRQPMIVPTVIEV

[2] = molecular target: T2, Mtb-RNase J 1-375/D85A (Mycobacterium tuberculosis H37Rv, UniProt P9WGZ9 1-375, D85A); assay: EMSA; 0.5 uM RNA; binding abolished; details: protein: recombinant; tags: N-terminal 6xHis-SUMO, removed by ULP1; single strand
T2 sequence: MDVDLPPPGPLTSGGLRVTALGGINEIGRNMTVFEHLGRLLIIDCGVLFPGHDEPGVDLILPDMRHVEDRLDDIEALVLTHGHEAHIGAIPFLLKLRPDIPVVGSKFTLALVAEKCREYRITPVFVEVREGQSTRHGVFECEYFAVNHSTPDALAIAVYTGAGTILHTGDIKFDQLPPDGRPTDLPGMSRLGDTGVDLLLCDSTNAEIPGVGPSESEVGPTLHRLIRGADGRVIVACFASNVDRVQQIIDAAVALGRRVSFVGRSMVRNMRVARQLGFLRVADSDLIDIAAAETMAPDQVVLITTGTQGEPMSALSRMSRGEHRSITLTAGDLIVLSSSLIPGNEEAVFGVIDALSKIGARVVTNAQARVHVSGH

[3] = molecular target: the molecule itself; assay: SEC
[4] = molecular target: the molecule itself; assay: crystal structure
[5] = molecular target: T1, Mtb-RNase J D85A (catalytically …); assay: EMSA; details: protein: recombinant; tags: N-terminal 6xHis-SUMO, removed by ULP1; chain copies: 2; label: 5'-FAM; single strand

B1: 7-nt poly(A) ssRNA (ssRNA)
RNA: AAAAAAA
B1: binds [1].

B2: 20-nt RNA (called poly(U) in legends; Methods print a mixed sequence) (ssRNA)
RNA: UUCCGUUUAUUCAUACUUCA
B2: no binding [2].

B3: Mtb-RNase J truncated mutant 1-470 (domain or fragment)
chain: MDVDLPPPGPLTSGGLRVTALGGINEIGRNMTVFEHLGRLLIIDCGVLFPGHDEPGVDLILPDMRHVEDRLDDIEALVLTHGHEDHIGAIPFLLKLRPDIPVVGSKFTLALVAEKCREYRITPVFVEVREGQSTRHGVFECEYFAVNHSTPDALAIAVYTGAGTILHTGDIKFDQLPPDGRPTDLPGMSRLGDTGVDLLLCDSTNAEIPGVGPSESEVGPTLHRLIRGADGRVIVACFASNVDRVQQIIDAAVALGRRVSFVGRSMVRNMRVARQLGFLRVADSDLIDIAAAETMAPDQVVLITTGTQGEPMSALSRMSRGEHRSITLTAGDLIVLSSSLIPGNEEAVFGVIDALSKIGARVVTNAQARVHVSGHAYAGELLFLYNGVRPRNVMPVHGTWRMLRANAKLAASTGVPQESILLAENGVSVDLVAGKASISGAVPVGKMFVDGLIAGDVGDITLGERLILSS
notes: also called C-terminal truncation (1–470); C-terminal domain-depletion protein (1-470); not shown: 6xHis-sumo, N-terminal, cleaved
B3 was tested, and the “stoichiometry N” value [3] was 2.

B4: Mtb-RNase J truncated mutant 1-450 (domain or fragment)
chain: MDVDLPPPGPLTSGGLRVTALGGINEIGRNMTVFEHLGRLLIIDCGVLFPGHDEPGVDLILPDMRHVEDRLDDIEALVLTHGHEDHIGAIPFLLKLRPDIPVVGSKFTLALVAEKCREYRITPVFVEVREGQSTRHGVFECEYFAVNHSTPDALAIAVYTGAGTILHTGDIKFDQLPPDGRPTDLPGMSRLGDTGVDLLLCDSTNAEIPGVGPSESEVGPTLHRLIRGADGRVIVACFASNVDRVQQIIDAAVALGRRVSFVGRSMVRNMRVARQLGFLRVADSDLIDIAAAETMAPDQVVLITTGTQGEPMSALSRMSRGEHRSITLTAGDLIVLSSSLIPGNEEAVFGVIDALSKIGARVVTNAQARVHVSGHAYAGELLFLYNGVRPRNVMPVHGTWRMLRANAKLAASTGVPQESILLAENGVSVDLVAGKASISGAVPVGKMFVD
notes: also called truncated protein (1–450); not shown: 6xHis-sumo, N-terminal, cleaved
With B4 the “stoichiometry N” value [3] was 2.

B5: Mtb-RNase J (D85A), catalytically inactive mutant (enzyme)
chain: MDVDLPPPGPLTSGGLRVTALGGINEIGRNMTVFEHLGRLLIIDCGVLFPGHDEPGVDLILPDMRHVEDRLDDIEALVLTHGHEAHIGAIPFLLKLRPDIPVVGSKFTLALVAEKCREYRITPVFVEVREGQSTRHGVFECEYFAVNHSTPDALAIAVYTGAGTILHTGDIKFDQLPPDGRPTDLPGMSRLGDTGVDLLLCDSTNAEIPGVGPSESEVGPTLHRLIRGADGRVIVACFASNVDRVQQIIDAAVALGRRVSFVGRSMVRNMRVARQLGFLRVADSDLIDIAAAETMAPDQVVLITTGTQGEPMSALSRMSRGEHRSITLTAGDLIVLSSSLIPGNEEAVFGVIDALSKIGARVVTNAQARVHVSGHAYAGELLFLYNGVRPRNVMPVHGTWRMLRANAKLAASTGVPQESILLAENGVSVDLVAGKASISGAVPVGKMFVDGLIAGDVGDITLGERLILSSGFVAVTVVVRRGTGQPLAAPHLHSRGFSEDPKALEPAVRKVEAELESLVAANVTDPIRIAQGVRRTVGKWVGETYRRQPMIVPTVIEV
notes: also called Mtb-RNase J D85A mutant; Mtb-RNase J/ssRNA (in complex with poly(A) ssRNA); not shown: 6xHis-sumo, N-terminal, cleaved
In the case of B5, the “stoichiometry N” value [4] is reported as 2.

B6: 9-nt poly(A) RNA (ssRNA)
RNA: AAAAAAAAA
B6: binds [5].
